The values that follow come from the Immune Epitope Database (IEDB).

In one assay the target is HLA-A*02:01. Put plainly: IEDB peptide-MHC binding, cellular MHC/competitive/fluorescence; ≥ and ≤ were set here for values at or beyond the usual limits of such assays.
The target of a further assay is HLA-A*02:06. The description is as above.
A further assay concerns the target HLA-A*02:02. The assay is described as follows: IEDB peptide-MHC binding, purified MHC/competitive/radioactivity; ≥ and ≤ were set here for values at or beyond the usual limits of such assays.
The target of the next assay is HLA-A*02:03. The description is as above.
The target of a further assay is HLA-A*68:02. The description is as above.
Where [1] appears, read: source organism: Vaccinia virus WR.
Where [2] appears, read: source organism: Influenza A virus.

One may read the IC50 as the midpoint of a concentration-inhibition curve.

In the case of AAAKTPVIV, the half-maximal inhibitory concentration (IC50) turned out to be 34700 nM with HLA-A*02:01 (setting [1]); 67300 nM in the assay with HLA-A*02:06 (setting [1]); 1900 nM in the assay with HLA-A*02:02 (setting [1]); 1420 nM in the assay with HLA-A*02:03 (setting [1]); 2020 nM in the assay with HLA-A*68:02 (setting [1]).

Regarding AAKTPVIVV, the IC50 with HLA-A*02:01 (setting [1]) came to 9430 nM; with HLA-A*02:06 (setting [1]), 25300 nM; with HLA-A*02:02 (setting [1]), 1360 nM; with HLA-A*02:03 (setting [1]), 1630 nM; with HLA-A*68:02 (setting [1]) it was 4280 nM.

On to AVATTHSWI, for which the IC50 with HLA-A*02:01 (setting [2]) came out at 32900 nM; with HLA-A*02:06 (setting [2]), 28000 nM; in the assay with HLA-A*02:02 (setting [2]) it was 440 nM; with HLA-A*02:03 (setting [2]), 753 nM; in the assay with HLA-A*68:02 (setting [2]), 876 nM.

Consider CLKNEGVSGL, for which the IC50 with HLA-A*02:01 (setting [1]) worked out at 6300 nM; in the assay with HLA-A*02:06 (setting [1]), 14100 nM; with HLA-A*02:02 (setting [1]), 127 nM; with HLA-A*02:03 (setting [1]), 25 nM; with HLA-A*68:02 (setting [1]), 2080 nM.

For DLNRMPTDML, the half-inhibitory concentration (IC50) with HLA-A*02:01 (setting [1]) came out at 17300 nM; with HLA-A*02:06 (setting [1]), 47400 nM; with HLA-A*02:02 (setting [1]), 1250 nM; with HLA-A*02:03 (setting [1]), 2190 nM; in the assay with HLA-A*68:02 (setting [1]), 3940 nM.

Regarding DTIAHINTL, the half-inhibitory concentration (IC50) with HLA-A*02:01 (setting [1]) is 10100 nM; with HLA-A*02:06 (setting [1]), 11100 nM; with HLA-A*02:02 (setting [1]) it was 747 nM; with HLA-A*02:03 (setting [1]), 233 nM; with HLA-A*68:02 (setting [1]), 1240 nM.

Consider DTLVKSGLT, for which the half-inhibitory concentration (IC50) in the assay with HLA-A*02:01 (setting [1]) was not below 70000 nM; in the assay with HLA-A*02:06 (setting [1]) it was 52900 nM; with HLA-A*02:02 (setting [1]), 1950 nM; with HLA-A*02:03 (setting [1]), 2880 nM; in the assay with HLA-A*68:02 (setting [1]), 1950 nM.

Take DVDIPTFNSL: the IC50 was 18200 nM with HLA-A*02:01 (setting [1]); 9710 nM in the assay with HLA-A*02:06 (setting [1]); 1810 nM in the assay with HLA-A*02:02 (setting [1]); 1030 nM with HLA-A*02:03 (setting [1]); 3050 nM with HLA-A*68:02 (setting [1]).

Regarding ELKDLLNVT, the IC50 is 51600 nM with HLA-A*02:01 (setting [1]); 38500 nM in the assay with HLA-A*02:06 (setting [1]); 1540 nM with HLA-A*02:02 (setting [1]); 209 nM with HLA-A*02:03 (setting [1]); 2780 nM in the assay with HLA-A*68:02 (setting [1]).

Turning to EMKYALINL, the half-inhibitory concentration (IC50) was 41200 nM with HLA-A*02:01 (setting [1]); not below 70000 nM with HLA-A*02:06 (setting [1]); 3060 nM with HLA-A*02:02 (setting [1]); 63 nM with HLA-A*02:03 (setting [1]); 2470 nM with HLA-A*68:02 (setting [1]).

As for ETLFGSYIT, the half-inhibitory concentration (IC50) worked out at 15600 nM with HLA-A*02:01 (setting [1]); 15400 nM with HLA-A*02:06 (setting [1]); 2490 nM with HLA-A*02:02 (setting [1]); 2440 nM with HLA-A*02:03 (setting [1]); 465 nM with HLA-A*68:02 (setting [1]).

As for EVTPEYIKDL, the IC50 with HLA-A*02:01 (setting [1]) worked out at 6500 nM; in the assay with HLA-A*02:06 (setting [1]), 7680 nM; with HLA-A*02:02 (setting [1]) it was 1520 nM; in the assay with HLA-A*02:03 (setting [1]), 2270 nM; with HLA-A*68:02 (setting [1]), 1230 nM.

As to FLRPVLKAM, the concentration for half-maximal inhibition (IC50) with HLA-A*02:01 (setting [1]) amounted to 11900 nM; with HLA-A*02:06 (setting [1]) it was 5480 nM; with HLA-A*02:02 (setting [1]), 1380 nM; with HLA-A*02:03 (setting [1]) it was 9.8 nM; in the assay with HLA-A*68:02 (setting [1]), 2470 nM.

As for FTSYKRFVT, the IC50 is not below 70000 nM with HLA-A*02:01 (setting [1]); 12400 nM with HLA-A*02:06 (setting [1]); 2330 nM in the assay with HLA-A*02:02 (setting [1]); 3380 nM in the assay with HLA-A*02:03 (setting [1]); 452 nM in the assay with HLA-A*68:02 (setting [1]).

As to GTSGVESAV, the 50% inhibitory concentration (IC50) in the assay with HLA-A*02:01 (setting [2]) was determined as 10800 nM; in the assay with HLA-A*02:06 (setting [2]) it was 11400 nM; with HLA-A*02:02 (setting [2]), 1100 nM; with HLA-A*02:03 (setting [2]) it was 3010 nM; in the assay with HLA-A*68:02 (setting [2]), 683 nM.

Regarding HMYRGGNGNT, the IC50 was found to be 19300 nM in the assay with HLA-A*02:01 (setting [1]); 9870 nM with HLA-A*02:06 (setting [1]); 2020 nM in the assay with HLA-A*02:02 (setting [1]); 423 nM with HLA-A*02:03 (setting [1]); 3260 nM in the assay with HLA-A*68:02 (setting [1]).

Consider IADIRDKYM, for which the IC50 came to 11400 nM with HLA-A*02:01 (setting [1]); 57800 nM in the assay with HLA-A*02:06 (setting [1]); 63 nM with HLA-A*02:02 (setting [1]); 230 nM in the assay with HLA-A*02:03 (setting [1]); 3110 nM with HLA-A*68:02 (setting [1]).

Regarding IAVANCVRNL, the 50% inhibitory concentration (IC50) in the assay with HLA-A*02:01 (setting [1]) came to 13600 nM; with HLA-A*02:06 (setting [1]), 9110 nM; in the assay with HLA-A*02:02 (setting [1]), 57 nM; with HLA-A*02:03 (setting [1]) it was 467 nM; with HLA-A*68:02 (setting [1]), 465 nM.

For IQKDINITHT, the concentration for half-maximal inhibition (IC50) with HLA-A*02:01 (setting [1]) worked out at 37400 nM; with HLA-A*02:06 (setting [1]), 61700 nM; with HLA-A*02:02 (setting [1]), 1360 nM; with HLA-A*02:03 (setting [1]), 340 nM; with HLA-A*68:02 (setting [1]) it was 4990 nM.

Consider ITHTNITTLL, for which the 50% inhibitory concentration (IC50) in the assay with HLA-A*02:01 (setting [1]) was 11900 nM; in the assay with HLA-A*02:06 (setting [1]), 14800 nM; in the assay with HLA-A*02:02 (setting [1]) it was 1680 nM; with HLA-A*02:03 (setting [1]) it was 101 nM; with HLA-A*68:02 (setting [1]) it was 311 nM.

On to IVNNFITKEI, for which the IC50 with HLA-A*02:01 (setting [1]) was 13700 nM; with HLA-A*02:06 (setting [1]) it was 14200 nM; with HLA-A*02:02 (setting [1]), 1470 nM; in the assay with HLA-A*02:03 (setting [1]) it was 192 nM; with HLA-A*68:02 (setting [1]), 1320 nM.

Take IVSLCPTKKL: the IC50 with HLA-A*02:01 (setting [1]) turned out to be 9970 nM; with HLA-A*02:06 (setting [1]) it was 28500 nM; in the assay with HLA-A*02:02 (setting [1]), 9.5 nM; with HLA-A*02:03 (setting [1]), 29 nM; in the assay with HLA-A*68:02 (setting [1]) it was 520 nM.

IVSSYVCSGL: the IC50 with HLA-A*02:01 (setting [2]) was determined as 6200 nM; with HLA-A*02:06 (setting [2]), 12700 nM; in the assay with HLA-A*02:02 (setting [2]), 161 nM; in the assay with HLA-A*02:03 (setting [2]), 795 nM; in the assay with HLA-A*68:02 (setting [2]), 767 nM.
